Measurements published in patent publication US20030032609A1 (Harvard, published 2003).

Target: T1, aryl hydrocarbon receptor nuclear translocator (ARNT) (human, UniProt P27540 1-789, limits assumed)
T1 construct: also called hARNT
Assay: heterodimer formation by deletion mutant; method not named

T1 sequence (P27540 whole entry): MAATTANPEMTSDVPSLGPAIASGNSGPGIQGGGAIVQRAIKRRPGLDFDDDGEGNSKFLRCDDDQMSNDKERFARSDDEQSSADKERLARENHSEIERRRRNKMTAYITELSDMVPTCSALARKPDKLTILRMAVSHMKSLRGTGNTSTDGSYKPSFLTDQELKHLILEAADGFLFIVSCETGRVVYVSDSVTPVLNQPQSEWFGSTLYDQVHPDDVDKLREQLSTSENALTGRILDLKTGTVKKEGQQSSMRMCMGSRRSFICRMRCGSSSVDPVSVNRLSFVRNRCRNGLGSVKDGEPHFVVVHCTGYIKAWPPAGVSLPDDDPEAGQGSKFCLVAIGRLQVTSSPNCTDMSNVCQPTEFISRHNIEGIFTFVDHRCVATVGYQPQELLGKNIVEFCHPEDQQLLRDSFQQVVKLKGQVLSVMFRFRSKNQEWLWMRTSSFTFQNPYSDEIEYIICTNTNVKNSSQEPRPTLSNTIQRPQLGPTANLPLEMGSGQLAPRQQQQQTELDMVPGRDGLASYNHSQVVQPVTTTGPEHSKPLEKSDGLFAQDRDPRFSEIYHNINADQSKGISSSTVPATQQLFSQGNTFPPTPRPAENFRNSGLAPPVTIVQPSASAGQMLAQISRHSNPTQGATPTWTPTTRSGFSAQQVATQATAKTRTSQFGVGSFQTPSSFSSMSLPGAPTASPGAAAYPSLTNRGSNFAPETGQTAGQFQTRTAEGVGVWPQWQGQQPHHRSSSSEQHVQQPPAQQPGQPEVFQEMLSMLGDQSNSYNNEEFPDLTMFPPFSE

binding result: binds
B1: EPAS1 polypeptide lacking amino acids 486-639 of SEQ ID NO: 6 (other)
chain: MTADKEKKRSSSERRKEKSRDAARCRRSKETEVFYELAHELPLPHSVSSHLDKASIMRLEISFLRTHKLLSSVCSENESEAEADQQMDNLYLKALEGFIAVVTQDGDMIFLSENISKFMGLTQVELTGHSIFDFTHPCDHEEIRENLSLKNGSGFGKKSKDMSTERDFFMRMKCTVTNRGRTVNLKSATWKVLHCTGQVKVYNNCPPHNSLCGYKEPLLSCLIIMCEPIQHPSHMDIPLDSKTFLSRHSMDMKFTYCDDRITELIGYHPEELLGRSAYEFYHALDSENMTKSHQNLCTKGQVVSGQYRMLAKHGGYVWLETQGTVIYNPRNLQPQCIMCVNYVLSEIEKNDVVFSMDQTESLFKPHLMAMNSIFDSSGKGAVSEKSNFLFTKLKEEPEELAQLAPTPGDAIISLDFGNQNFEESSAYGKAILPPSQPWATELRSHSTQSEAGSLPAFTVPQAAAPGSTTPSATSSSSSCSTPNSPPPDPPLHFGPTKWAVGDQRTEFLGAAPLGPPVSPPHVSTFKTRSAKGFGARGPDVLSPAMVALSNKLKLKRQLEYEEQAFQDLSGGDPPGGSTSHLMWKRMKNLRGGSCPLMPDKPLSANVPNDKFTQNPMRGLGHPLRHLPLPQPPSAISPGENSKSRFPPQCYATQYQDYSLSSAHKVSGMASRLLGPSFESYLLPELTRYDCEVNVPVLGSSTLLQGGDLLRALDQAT
notes: Internal deletion as worded; The C-terminal end, 870, is derived from '1-690' plus '180 C-terminal amino acids'; also called dominant negative EPAS1 mutant
